Assay in all cases: ITC; FITC-CSTN-WD2 peptide as titrant (380 uM) into wild-type or mutant KLC2^TPR-myc (44-50 uM) in the cell; 25 C; 0.1 M NaCl, 25 mM HEPES, 1 mM TCEP, pH 7.5; 2-3 experiments globally fitted with the model A + B -> AB; apparent stoichiometry Napp
For assay [1], the target named is KLC2^TPR-myc (kinesin light chain 2 TPR domain, wild type, C-terminal myc tag) (mouse) (UniProt O88448).
Assay [2] addresses KLC2^TPR-myc Thr^200Asp mutant (mouse) (UniProt O88448).
Assay [3] deals with KLC2^TPR-myc Tyr^208Ala mutant (mouse) (UniProt O88448).

*: point of attachment. FITC = O=C1OC2(c3ccc(O)cc3Oc3cc(O)ccc32)c2ccc(NC(=S)*)cc21

Consider {FITC}-TRQLEWDDSTL-OH [FITC-labeled CSTN(WD2) peptide (FITC-…-COOH)], for which the values for the Ka in assay [1], in assay [2] and in assay [3] were 820000 M⁻¹, 845000 M⁻¹ and 541000 M⁻¹, respectively. Moreover, the stoichiometry N amounted to 0.67 in assay [1], 0.71 in assay [2] and 0.67 in assay [3].

Usually stoichiometry N stands for a count of units in the complex or per binding partner.
